From publication PMC3629208, “Effective Identification of Akt Interacting Proteins by Two-Step Chemical Crosslinking, Co-Immunoprecipitation and Mass Spectrometry” (PLoS ONE, 2013)
Values belong to the binder of their own block, whether it stands above or below them.

Target: T1, Akt (protein kinase B), Akt1 (mouse (endogenous in Neuro 2A), UniProt P31750 1-480)
T1 construct: Akt1, mouse, endogenous in Neuro 2A cells, captured by a rabbit anti-Akt antibody; MS peptide assigned to Akt1 (gi/6753034); Bait of all co-IPs; The anti-Akt antibody may also capture other Akt isoforms; Cells were unstimulated or IGF-1 stimulated (phospho-T308 as the mark of active Akt); source: endogenous, Neuro 2A lysate
Assay: co-IP; two-step crosslinking co-IP (DSS-fixed anti-Akt antibody, DSP-crosslinking of the bound complexes) from Neuro 2A lysate, western blot; cells with or without IGF-1 (10 ng/mL, 10 min); band intensity normalized to Akt level
Conditions: partners not purified

T1 sequence (P31750 whole entry, canonical isoform): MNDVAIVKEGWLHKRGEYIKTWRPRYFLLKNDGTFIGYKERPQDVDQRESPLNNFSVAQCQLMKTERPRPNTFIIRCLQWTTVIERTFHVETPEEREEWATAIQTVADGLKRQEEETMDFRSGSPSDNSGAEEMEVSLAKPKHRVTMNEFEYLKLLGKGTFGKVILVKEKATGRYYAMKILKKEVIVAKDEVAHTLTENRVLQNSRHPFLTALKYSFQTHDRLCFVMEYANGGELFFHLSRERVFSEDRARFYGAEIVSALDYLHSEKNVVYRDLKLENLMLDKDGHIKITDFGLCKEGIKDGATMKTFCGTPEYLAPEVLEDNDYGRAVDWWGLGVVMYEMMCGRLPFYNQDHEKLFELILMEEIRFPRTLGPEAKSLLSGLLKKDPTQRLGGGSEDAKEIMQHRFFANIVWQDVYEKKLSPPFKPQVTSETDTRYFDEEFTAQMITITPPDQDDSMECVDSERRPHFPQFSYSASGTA

B1: ErbB3 binding protein 1 (EBP1, also called proliferation-associated protein 2G4) (natural protein, mouse (endogenous in Neuro 2A), UniProt P50580 1-394, looked up)
chain: MSGEDEQQEQTIAEDLVVTKYKMGGDIANRVLRSLVEASSSGVSVLSLCEKGDAMIMEETGKIFKKEKEMKKGIAFPTSISVNNCVCHFSPLKSDQDYILKEGDLVKIDLGVHVDGFIANVAHTFVIGVAQGTQVTGRKADVIKAAHLCAEAALRLVKPGNQNTQVTEAWNKVAHSFNCTPIEGMLSHQLKQHVIDGEKTIIQNPTDQQKKDHEKAEFEVHEVYAVDVLVSSGEGKAKDAGQRTTIYKRDPSKQYGLKMKTSRAFFSEVERRFDAMPFTLRAFEDEKKARMGVVECAKHELLQPFNVLYEKEGEFVAQFKFTVLLMPNGPMRITSGPFEPDLYKSEMEVQDAELKALLQSSASRKTQKKKKKKASKTVENATSGETLEENGAGD
notes: EBP1 (proliferation-associated protein 2G4), mouse, endogenous; gi 116283229, 42 kDa; source: endogenous, Neuro 2A lysate
- fold increase of association, IGF-stimulated (active Akt) against unstimulated, normalized to Akt level: 2.4 fold

B3: extracellular regulated kinase-1 and -2 (ERK1/2) (natural protein, mouse (endogenous in Neuro 2A), UniProt P63085 1-358, looked up)
chain: MAAAAAAGPEMVRGQVFDVGPRYTNLSYIGEGAYGMVCSAYDNLNKVRVAIKKISPFEHQTYCQRTLREIKILLRFRHENIIGINDIIRAPTIEQMKDVYIVQDLMETDLYKLLKTQHLSNDHICYFLYQILRGLKYIHSANVLHRDLKPSNLLLNTTCDLKICDFGLARVADPDHDHTGFLTEYVATRWYRAPEIMLNSKGYTKSIDIWSVGCILAEMLSNRPIFPGKHYLDQLNHILGILGSPSQEDLNCIINLKARNYLLSLPHKNKVPWNRLFPNADSKALDLLDKMLTFNPHKRIEVEQALAHPYLEQYYDPSDEPIAEAPFKFDMELDDLPKEKLKELIFEETARFQPGYRS
notes: ERK1/2, mouse, endogenous; the MS entry is a single 42 kDa protein; source: endogenous, Neuro 2A lysate
- fold change of association, IGF-stimulated against unstimulated, normalized to Akt level: 0.98 fold
- fold increase of co-precipitated ERK1/2 with DSP-crosslinking against without, normalized to Akt level: 2.5 ± 0.2 fold

The next lines start with the values.

- fold change of association, IGF-stimulated against unstimulated, normalized to Akt level: 0.97 ± 0.1 fold
B2: nuclear distribution gene C (Nudc, also named nuclear migration gene C) (natural protein)
chain: not shown
notes: nuclear migration protein nudC, mouse, endogenous; gi 6754910, 38 kDa; source: endogenous, Neuro 2A lysate

- fold increase of association, IGF-stimulated (active Akt) against unstimulated, normalized to Akt level: 1.8 fold
B4: glycogen synthase kinase (GSK)-3β (enzyme, mouse (endogenous in Neuro 2A), UniProt Q9WV60 1-420, looked up)
chain: MSGRPRTTSFAESCKPVQQPSAFGSMKVSRDKDGSKVTTVVATPGQGPDRPQEVSYTDTKVIGNGSFGVVYQAKLCDSGELVAIKKVLQDKRFKNRELQIMRKLDHCNIVRLRYFFYSSGEKKDEVYLNLVLDYVPETVYRVARHYSRAKQTLPVIYVKLYMYQLFRSLAYIHSFGICHRDIKPQNLLLDPDTAVLKLCDFGSAKQLVRGEPNVSYICSRYYRAPELIFGATDYTSSIDVWSAGCVLAELLLGQPIFPGDSGVDQLVEIIKVLGTPTREQIREMNPNYTEFKFPQIKAHPWTKVFRPRTPPEAIALCSRLLEYTPTARLTPLEACAHSFFDELRDPNVKLPNGRDTPALFNFTTQELSSNPPLATILIPPHARIQAAASPPANATAASDTNAGDRGQTNNAASASASNST
notes: glycogen synthase kinase-3 beta, mouse, endogenous; gi 9790077, 47 kDa; source: endogenous, Neuro 2A lysate
